# Reference: patent US20240002540A1 (KEYMED BIOSCIENCES CHENGDU, published 2024)
# Where a chain is given by its changes, count along the chain named.
# B1: REGN5458 (antibody, V domains shown)
# VH: EVQLVESGGGLVQPGRSLRLSCAASGFTFDDYSMHWVRQAPGKGLEWVSGISWNSGSKGYADSVKGRFTISRDNAKNSLYLQMNSLRAEDTALYYCAKYGSGYGKFYHYGLDVWGQGTTVTVSS
# VL: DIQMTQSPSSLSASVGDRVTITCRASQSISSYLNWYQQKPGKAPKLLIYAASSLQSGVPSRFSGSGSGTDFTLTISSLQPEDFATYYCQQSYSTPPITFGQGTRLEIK
# B2: BCMA×CD3 κλ006 (bispecific antibody, human IgG4 S228P, kappa, lambda)
# light 1: DIVLTQSPASLAVSPGQRATITCRASKSVTTSGYSYIHWYQKKPGQPPKLLIYLASDLEAGVPARFSGSGSGTDFTLTINPVEAEDTANYYCQHSRELPWTFGQGTKVEIKRTVAAPSVFIFPPSDEQLKSGTASVVCLLNNFYPREAKVQWKVDNALQSGNSQESVTEQDSKDSTYSLSSTLTLSKADYEKHKVYACEVTHQGLSSPVTKSFNRGEC
# heavy 1: QVQLVQSGSELKKPGASVKVSCKASGYIFTNFGMNWVREAPGQGLEWMGWINTYTGEQIYADGFTGRFVFSLDTSASTAYLQISSLKAEDTAVYFCARGEIYYGYDVGFVYWGQGTLVTVSSASTKGPSVFPLAPCSRSTSESTAALGCLVKDYFPEPVTVSWNSGALTSGVHTFPAVLQSSGLYSLSSVVTVPSSSLGTKTYTCNVDHKPSNTKVDKRVESKYGPPCPPCPAPEFEGGPSVFLFPPKPKDTLMISRTPEVTCVVVDVSQEDPEVQFNWYVDGVEVHNAKTKPREEQFNSTYRVVSVLTVLHQDWLNGKEYKCKVSNKGLASSIEKTISKAKGQPREPQVCTLPPSQEEMTKNQVSLSCAVKGFYPSDIAVEWESNGQPENNYKTTPPVLDSDGSFFLVSKLTVDKSRWQEGNVFSCSVMHEALHNHYTQKSLSLSLGK
# light 2: QAVVTQEPSLTVSPGGTVTLTCRSSTGAVTTSNYANWVQEKPGQAPRGLIGGTNKRAPWTPARFSGSLLGGKAALTITGAQAEDEAEYYCVLWYSNLWVFGGGTKLTVLGQPKAAPSVTLFPPSSEELQANKATLVCLISDFYPGAVTVAWKADSSPVKAGVETTTPSKQSNNKYAASSYLSLTPEQWKSHRSYSCQVTHEGSTVEKTVAPTECS
# heavy 2: EVQLVESGGGLVQPGGSLRLSCAASGFTFNTYAMNWVRKAPGKGLEWVGRIRSKYNNYATYYADSVKDRFTISRDDSKNSLYLQMNSLKTEDTAVYYCVRHGNFGNSYVSWFAYWGQGTLVTVSSASTKGPSVFPLAPCSRSTSESTAALGCLVKDYFPEPVTVSWNSGALTSGVHTFPAVLQSSGLYSLSSVVTVPSSSLGTKTYTCNVDHKPSNTKVDKRVESKYGPPCPPCPAPEFEGGPSVFLFPPKPKDTLMISRTPEVTCVVVDVSQEDPEVQFNWYVDGVEVHNAKTKPREEQFNSTYRVVSVLTVLHQDWLNGKEYKCKVSNKGLASSIEKTISKAKGQPREPQVYTLPPCQEEMTKNQVSLWCLVKGFYPSDIAVEWESNGQPENNYKTTPPVLDSDGSFFLYSKLTVDKSRWQEGNVFSCSVMHEALHNHYTQKSLSLSLGK
# B3: aCD3-hVH9/VL2 (antibody, human IgG4, V domains shown)
# VH: EVQLVESGGGLVQPGGSLRLSCAASGFTFNTYAMNWVRKAPGKGLEWVGRIRSKYNNYATYYADSVKDRFTISRDDSKNSLYLQMNSLKTEDTAVYYCVRHGNFGNSYVSWFAYWGQGTLVTVSS
# VL: QAVVTQEPSLTVSPGGTVTLTCRSSTGAVTTSNYANWVQEKPGQAPRGLIGGTNKRAPWTPARFSGSLLGGKAALTLSGAQPEDEAEYYCALWYSNLWVFGGGTKLTVL
# notes: also called humanized anti-CD3 antibody hVH9/VL2
# B4: aCD3-hVH9/VL5 (antibody, human IgG4, V domains shown)
# VH: B3 VH
# VL: B3 VL with L77I, S78T, P82A, A91V
# notes: also called humanized anti-CD3 antibody hVH9/VL5
# Tests used:
# [1] = target: T1, human CD3 on T cells (Jurkat cells; human peripheral blood CD4+ and CD8+ T-cells) (human, UniProt P07766 23-207); experiment: flow cytometry on human peripheral blood CD4+ T cells
# T1 construct: whole, on cells; the other chains of the complex are present on the cells; also called CD4T; CD4 + T
# [2] = target: T1, human CD3 on T cells (Jurkat cells; …); experiment: flow cytometry on human peripheral blood CD8+ T cells
# human BCMA on cells [3] = target: T2, human BCMA on cells (human, UniProt Q02223 1-184); experiment: flow cytometry on CHO-human BCMA cells
# T2 construct: whole, on cells; also called Human BCMA-CHO; CHO-hBCMA
# T2 sequence (looked up): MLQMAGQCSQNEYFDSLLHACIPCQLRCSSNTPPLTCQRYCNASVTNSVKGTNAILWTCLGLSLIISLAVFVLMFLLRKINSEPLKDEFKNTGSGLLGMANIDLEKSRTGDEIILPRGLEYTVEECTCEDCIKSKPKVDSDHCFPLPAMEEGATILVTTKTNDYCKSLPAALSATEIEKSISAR
# Protocol: (§1) 50 μL/well Alexa Fluro647 labeled goat anti-human IgG Fc (1: 300 dilution) were added to the secondary antibody, incubated on ice for 20 min, added with 50 μL/well PI solution (1: 300) after washing once, incubated for 5 min, and flow cytometer was used to make detection.
# human BCMA on cells [4] = target: T2, human BCMA on cells; experiment: flow cytometry on RPMI-8226 cells
# Protocol: as §1
# [5] = target: T1, human CD3 on T cells (Jurkat cells; …); experiment: flow cytometry on Jurkat cells
# Protocol: The cells were adjusted to 5×10^5 cells/mL with 4% calf serum, 100 μL/well was added to 96-well U-plate, 300 g was centrifuged to removed the supernatant, 100 μL/well of gradient diluted antibody (initial concentration: 1800 nM, 3-fold dilution, 10 gradients) was added and incubated at 4° C. for 60 min. […] 50 μL/well PI was added after washing once, incubated for 5 min, and detected with flow cytometer (BD C6).
# [6] = target: T1, human CD3 on T cells (Jurkat cells; …); experiment: flow cytometry on human peripheral blood CD4+ T-cells
# Protocol: (§2) Fresh human peripheral blood was taken and PBMC was isolated by Ficoll. Paque Plu (GE, 17-1440-03). PBMC was adjusted to 5×10⁵ cells/mL with 4% calf serum (Hyclone, SH30626.06), 100 μL/well was added to a 96-well U-plate, the supernatant was centrifuged off and 100 μL of gradient diluted antibody (with starting concentration of 1800 nM, 3-fold dilution, 10 gradients) was added to each well and incubated for 60 min at 4° C. 50 μL/well of Alexa Fluro647 labeled goat anti-human IgG Fc (1: 300 dilution) was added to the secondary antibody, with ice bath for 20 min, and 50 μL/well PI added after washing once, incubated for 5 min, and flow cytometer (BD C6) was used for detection. The control antibody REGN5458 was synthesized and prepared according to US20200024356.
# [7] = target: T3, Cynomolgus monkey CD3εγ-Fc heterodimer (cynomolgus monkey); experiment: SPR (Biacore T200), antigen amine-coupled to CM5 chip, antibody as analyte, 1:1 model
# T3 construct: also called cynomolgus monkey CD3εγ protein
# T3 chain 1: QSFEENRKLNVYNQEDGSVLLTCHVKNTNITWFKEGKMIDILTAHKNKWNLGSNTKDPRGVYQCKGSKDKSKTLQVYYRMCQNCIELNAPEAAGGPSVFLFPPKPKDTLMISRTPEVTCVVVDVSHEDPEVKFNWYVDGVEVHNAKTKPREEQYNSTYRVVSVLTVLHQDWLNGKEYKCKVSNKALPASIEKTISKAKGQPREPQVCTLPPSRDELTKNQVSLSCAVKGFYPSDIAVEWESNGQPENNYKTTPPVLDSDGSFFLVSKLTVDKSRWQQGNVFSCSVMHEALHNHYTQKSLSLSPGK
# T3 chain 2: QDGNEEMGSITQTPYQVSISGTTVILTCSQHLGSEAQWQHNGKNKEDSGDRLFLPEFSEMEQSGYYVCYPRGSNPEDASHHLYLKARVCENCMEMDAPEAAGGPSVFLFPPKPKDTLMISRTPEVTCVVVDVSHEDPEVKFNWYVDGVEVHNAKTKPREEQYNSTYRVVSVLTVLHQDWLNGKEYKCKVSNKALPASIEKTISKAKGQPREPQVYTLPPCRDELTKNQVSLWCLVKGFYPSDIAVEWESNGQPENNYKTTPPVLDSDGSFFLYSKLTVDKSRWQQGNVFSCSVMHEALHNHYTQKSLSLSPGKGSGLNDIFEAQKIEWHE
# Protocol: (§3) 10 μg/mL human or cynomolgus monkey BCMA or CD3εγ recombinant antigen was bound to a CM5 chip (GE healthcare) by amino conjugating, while the amount of antigen bound was controlled to approximately 200 RU. After baseline plateau, gradient diluted antibodies (7 gradients of 2-fold dilutions from 10 μg/mL) were flowed through the chip at a flow rate of 30 μL/min for a binding time of 350 seconds and a dissociation time of 600 seconds. Kinetic constants were fitted using Biacore T200 evaluation software with a 1: 1 binding model.
# [8] = target: cynomolgus monkey BCMA recombinant antigen (cynomolgus monkey, UniProt A0A2K5UD97 1-53); experiment: as above
# Protocol: as §3
# [9] = target: T4, human CD3εγ-Fc heterodimer (human); experiment: as above
# T4 construct: also called human CD3εγ protein; human CD3εγ recombinant protein
# T4 chain 1: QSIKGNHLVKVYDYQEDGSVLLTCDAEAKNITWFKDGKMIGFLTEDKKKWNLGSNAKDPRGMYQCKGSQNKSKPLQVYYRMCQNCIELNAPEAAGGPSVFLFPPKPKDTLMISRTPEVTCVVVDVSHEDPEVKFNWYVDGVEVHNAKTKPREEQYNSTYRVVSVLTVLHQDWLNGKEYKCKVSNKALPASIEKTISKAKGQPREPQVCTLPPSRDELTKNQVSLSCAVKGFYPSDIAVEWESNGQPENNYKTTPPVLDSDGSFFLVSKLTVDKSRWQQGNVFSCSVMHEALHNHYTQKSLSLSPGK
# T4 chain 2: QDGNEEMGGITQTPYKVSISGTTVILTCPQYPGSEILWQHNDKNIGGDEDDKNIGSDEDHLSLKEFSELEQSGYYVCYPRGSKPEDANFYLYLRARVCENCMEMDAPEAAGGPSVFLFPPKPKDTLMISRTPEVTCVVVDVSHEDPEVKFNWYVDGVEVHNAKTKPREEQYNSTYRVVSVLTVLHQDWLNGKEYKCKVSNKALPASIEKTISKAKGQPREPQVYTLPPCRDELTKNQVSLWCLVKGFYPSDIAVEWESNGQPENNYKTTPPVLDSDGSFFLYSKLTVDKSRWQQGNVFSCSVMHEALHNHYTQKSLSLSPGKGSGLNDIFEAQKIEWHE
# Protocol: as §3
# [10] = target: T5, human BCMA recombinant antigen (human, UniProt Q02223 1-54, limits assumed); experiment: as above
# T5 sequence (looked up): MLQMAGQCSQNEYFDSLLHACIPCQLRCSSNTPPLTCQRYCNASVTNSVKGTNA
# Protocol: as §3
# [11] = target: T1, human CD3 on T cells (Jurkat cells; …); experiment: flow cytometry on human peripheral blood CD8+ T-cells
# Protocol: as §2
# human BCMA on cells [12] = target: T2, human BCMA on cells; experiment: flow cytometry on NCI-H929 cells
# Protocol: as §1
# [13] = target: T3, Cynomolgus monkey CD3εγ-Fc heterodimer; experiment: ELISA on coated cynomolgus monkey CD3εγ protein (panel 'Monkey CD3εγ dimer')
# Protocol: Human CD3εγ protein and cynomolgus monkey CD3εγ protein were coated separately overnight at 4° C. After blocking with 2% skim milk, different dilutions of CD3 antibody were added to each well and incubated for 1 hour. After the secondary antibody was developed by adding HPR-labeled goat anti-human IgG Fc and TMB solution, the reaction was stopped with concentrated sulfuric acid, and the absorbance was read at 450 nm.
# cynomolgus monkey BCMA recombinant antigen, sequence (A0A2K5UD97 entry or part of it): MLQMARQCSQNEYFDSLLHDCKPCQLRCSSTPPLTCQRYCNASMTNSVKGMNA
binder,measurement,setting,value
B1,EC50 (read off the curve),[1],~10 nM
same,EC50 (read off the curve),[2],~10 nM
B2,EC50,human BCMA on cells [3],16 nM
same,EC50,human BCMA on cells [4],19 nM
same,EC50,[5],56 nM
same,EC50,[6],91 nM
same,Kd,[7],33 nM
same,Kd,[8],0.1 nM
same,Kd,[9],27 nM
same,Kd,[10],1.2 nM
same,EC50,[11],93 nM
same,EC50,human BCMA on cells [12],32 nM
B3,EC50 (read off the curve),[13],~0.04 ng/mL
B4,EC50 (read off the curve),[13],~0.06 ng/mL
